Assay results from the supplement of paper PMC10567573.

B1: INTS4 (parent)
chain: TIIEPAGESDNPLRFTSGLVVALD

Variants of: B1
Assay: protein stability index of a GFP-peptide fusion (GPS, HEK-293T) (PSI 1-6); higher = more stable
Conditions: c terminus: a fixed tail appended
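Also: lentivirally expressed fusions sorted by FACS into six bins by GFP to DsRed ratio, PSI derived from sequencing read proportions per bin multiplied by bin number.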

Protein stability index, by site and new letter:
I3: A 4.03; N 3.51; T 3.4; F 2.38; V 4.2; M 3.23; D 4.07; H 3.9; S 4.07; P 3.42; W 2.88; E 4.4; K 3.85; C 3.2; G 3.7; Y 3.29; R 3.06; Q 3.45; L 2.76
S9: K 2.87; R 2.79; F 2.65; E 3.73; H 3.17; P 3.25; C 2.28; T 2.9; M 3.16; Y 2.48; I 2.78; D 3.29; W 2.19; Q 2.77; G 2.75; L 2.38; A 2.57; N 3.25; V 2.92
I2: Q 3.22; F 3.8; D 4.21; K 2.89; A 3.71; N 3.9; W 2.38; S 3.48; H 3.18; L 3.48; Y 2.32; C 2.84; T 3.21; R 3.67; G 3.51; P 3.9; E 3.86; M 3.38; V 3.15
P5: K 2.79; E 3.31; W 2.53; N 2.91; Y 1.93; T 2.77; G 2.78; H 2.83; L 2.76; F 1.53; A 2.37; R 2.51; D 3.36; I 1.5; C 2.56; V 2.54; M 1.76; S 2.33; Q 2.49
T1: W 2.23; V 2.23; S 3.41; R 2.32; Y 2.08
A6: E 3.74; H 2.75; R 3.07; M 2.63; V 2.62; Y 2.19; F 2.52; N 2.52; D 3.7; P 2.99; W 1.78; Q 2.72; C 2.47; K 2.98; G 2.94; L 2.2; S 2.54; I 2.73; T 2.61
G7: E 3.82; V 2.76; P 3.04; T 3.08; L 2.67; C 2.56; W 2.26; I 2.84; Y 2.45; M 2.36; H 2.73; F 2.78; R 3.54; Q 3.33; K 2.94; D 3.74; A 3.83; N 2.77; S 2.9
E8: G 2.32; A 2.23; K 1.9; W 1.5; Y 1.99; R 3.15; V 2.66; I 2.02; M 2.54; L 2.37; T 2.61; C 2.2; D 2.88; F 2.19; H 2.23; P 2.15; Q 2.62; N 2.23; S 3.08
E4: K 2.19; V 1.98; R 2.94; S 2.89; N 2.09; L 2.33; Q 2.84; I 1.72; H 2.55; M 2.1; A 2.76; D 3.09; G 2.25; T 2.34; C 2.05; F 1.81; Y 1.51; W 1.56; P 3.15
D10: M 2.15; A 2.96; L 1.85; C 2.08; F 2.65; E 2.62; G 2.56; H 2.75; I 2.08; K 2.32
